Assay results as given in article PMC8439235, “High-yield synthesis and purification of recombinant human GABA transaminase for high-throughput screening assays” (Journal of Enzyme Inhibition and Medicinal Chemistry, 2021).

Molecular target: the molecule itself
Assay: SEC; Superdex 200 Increase 10/300 GL, 50 mM K4P2O7 buffer pH 8.6, 0.5 ml/min, 4 °C; size judged against standard peaks (158 kDa and 44 kDa) and the 53 kDa monomer band on reducing SDS-PAGE

B1: 6xHis-tagged recombinant human GABA transaminase (GABA-T) (enzyme)
chain: not shown
notes: human GABA transaminase (GABA-T; EC 2.6.1.19) encoded by the ABAT gene; The band on reducing SDS-PAGE was 53 kDa; The purification tag was not removed; also called γ-aminobutyric acid transaminase; 4-aminobutyrate transaminase; source: Expi293F cells, transiently transfected, purified (Ni-NTA, size-exclusion chromatography); not shown: Avi-tag (preceded by an HRV 3C protease site), C-terminal, …
stoichiometry N: 2
